In US20230250148A1 (published 2023):
Where two headings read alike, the source gives them in different places.

B1: insulin-Fc fusion protein of SEQ ID NO: 26 (Fc fusion)
chain: FVNQHLCGSHLVEALELVCGERGFHYGGGGGGSGGGGGIVEQCCTSTCSLDQLENYCGGGGGQGGGGQGGGGQGGGGGDCPKCPAPEMLGGPSVFIFPPKPKDTLLIARTPEVTCVVVDLDPEDPEVQISWFVDGKQMQTAKTQPREEQFNGTYRVVSVLPIGHQDWLKGKQFTCKVNNKALPSPIERTISKARGQAHQPSVYVLPPSREELSKNTVSLTCLIKDFFPPDIDVEWQSNGQQEPESKYRTTPPQLDEDGSYFLYSKLSVDKSRWQRGDTFICAVMHEALHNHYTQESLSHSPG
modifications: native N-glycosylation site cNg-NB151
B2: insulin-Fc fusion protein of SEQ ID NO: 75 (Fc fusion)
chain: FVNQHLCGSHLVEALELVCGERGFHYGGGGGGSGGGGGIVEQCCTSTCSLDQLENYCGGGGGQGGGGQGGGGQGGGGGECPPCPAPPVAGPSVFLFPPKPKDTLMISRTPEVTCVVVDVSHEDPEVQFNWYVDGVEVHNAKTKPREEQFNSTFRVVSVLTVVHQDWLNGKEYKCKVSNKGLPAPIEKTISKTKGQPREPQVYTLPPSREEMTKNQVSLTCLVKGFYPSDIAVEWESNGQPENNYKTTPPMLDSDGSFFLYSKLTVDKSRWQQGNVFSCSVMHEALHNHYTQKSLSLSPG

How the values were obtained:
[1] = biological target: biotinylated canine FcRn (canine, UniProt A0A8I3PFR8 25-347, biotinylated, site not stated); assay: ELISA pH 5.5, fusion protein coated, biotinylated canine FcRn titrated
Method: Insulin-Fc fusion proteins comprising Fc fragments of canine origin were diluted to 10 µg/ml in sodium bicarbonate pH 9.6 buffer and coated in duplicate on Maxisorb ELISA plate strips for 1-2 hours at RT. The strips were then washed 4 times with PBST (PBS/0.1% Tween-20) buffer and blocked with Superblock blocking reagent (ThermoFisher). Strips for FcRn binding were then washed again twice with pH 5.5 MES/NaCl/Tween (50 mM MES/150mM NaCl/0.1% Tween-20) buffer before addition of the FcRn reagent (biotinylated canine FcRn; Immunitrack). Serial dilutions (1:3X dilutions) of biotinylated FcRn reagent were prepared in pH 5.5 MES/NaCl/Tween/10%Superblock buffer at concentrations from 1000 ng/ml to 0.45 ng/mL and loaded at 100 µL/well using a multichannel pipettor onto the strips coated with the insulin-Fc fusion protein compounds. The assay plate was then incubated for 1 hour at room temperature. FcRn binding strips were washed 4 times with pH 5.5 MES/NaCl/Tween buffer and then loaded with 100 µl/well streptavidin-HRP diluted 1:10000 in pH 5.5 MES/NaCl /10%Superblock buffer. After incubating for 45 minutes, strips were washed again 4 times with pH 5.5 MES/NaCl/Tween buffer. […] The plate was read in an ELISA plate reader at a wavelength of 450 nm. […] EC50 values for each binding curve were calculated to compare between different compounds.

[2] = biological target: T1, biotinylated recombinant human Fc(gamma)RI (human, UniProt P12314 16-288, biotinylated, site not stated); assay: ELISA, fusion protein coated, biotinylated rhFc(gamma)RI at 3000 ng/mL
T1 construct: Bought reagent; construct not described; also called rhFc(gamma)RI; Fc(gamma) receptor I
Method: The binding of insulin-Fc fusion proteins to the Fc(gamma)RI at pH 7.4 is conducted using an ELISA assay as follows using human Fc(gamma)RI (i.e., rhFc(gamma)RI). Insulin-Fc fusion proteins are diluted to 10 µg/mL in sodium bicarbonate buffer at pH 9.6 and coated on Maxisorp (Nunc) microtiter plates overnight at 4° C., after which the microplate strips are washed 5 times with PBST (PBS/0.05% Tween-20) buffer and blocked with Superblock blocking reagent (ThermoFisher). Serial dilutions of biotinylated rhFc(gamma)RI (recombinant human Fc(gamma)RI; R&D Systems) are prepared in PBST/10% Superblock buffer from 3000 ng/mL to 4.1 ng/mL and loaded at 100 µL/well onto the microplate strips coated with insulin-Fc fusion protein. The microtiter plate is incubated for 1 hour at room temperature after which time the microplate strips are washed 5 times with PBST and then loaded with 100 µL/well of streptavidin-HRP diluted 1:10000 in PBST/10% Superblock buffer. After incubating for 45 min, the microplate strips are washed again 5 times with PBST. TMB is added to reveal the bound Fc(gamma)RI proteins and is stopped with ELISA stop reagent (Boston Bioproducts). The plate is read in an ELISA plate reader at 450 nm, and the OD450 values (proportional to the binding of rhFc(gamma)RI to insulin-Fc protein) are plotted against log concentrations of rhFc(gamma)RI added to each well to generate binding curves using GraphPad Prism software. For groupings of compounds with somewhat similar curves, the OD450 at one of the higher concentrations, for instance at rhFc(gamma)RI concentrations of 3000 ng/mL, can be used to identify differences between coated insulin-Fc fusion protein compounds. […]
Finally, select compounds were tested for their likelihood to interact with the immune system by measuring their Fc(gamma) receptor binding activity according to the procedure of Example 15.

[3] = biological target: T2, human insulin receptor (IR) on human IM-9 cells (human, UniProt P06213 28-1382); assay: competition with biotinylated RHI on IM-9 cells, flow cytometry, 4 C
T2 construct: whole, on cells; also called human IR
Method: (§1) 40 µL of an IM-9 cell suspension (8×10⁶ cells/mL) was then added to each well by multichannel pipette, mixed again gently and incubated on ice for 30 min to allow competitive binding on the IR on IM-9 cells. Cells were then washed twice with 275µL of ice-cold FACS wash buffer (HBSS/2mM EDTA/0.1% Na-azide + 0.5% horse serum) by centrifuging the V-bottom plate at 3000 rpm for 3 min and aspirating the supernatant. Cells were then resuspended in 40µL of FACS staining medium containing 1:100 diluted Streptavidin-PE (Life Technologies) for 20 min on ice. Cells were then washed once with 275 µL of ice-cold FACS buffer and finally fixed with 3% paraformaldehyde for 10 min at room temp. Cells were then washed once with 275 µL of ice-cold FACS buffer and resuspended in 250µl of FACS buffer for analysis.
(§2) The insulin-Fc fusion proteins were manufactured in HEK293 cells according to Example 1 and purified using a Protein A column according to Example 4. Their structures were confirmed according to Example 6 by non-reducing and reducing CE-SDS, and the sequences were further identified by LC-MS with glycan removal according to Example 8. Their %homodimer content was measured by size-exclusion chromatography according to Example 10, and their insulin receptor binding affinities were measured according to Example 12.

[4] = biological target: T2, human insulin receptor (IR) on human …; assay: as above; remark: listed apart in the source
Method: as §1, §2

[5] = biological target: T2, human insulin receptor (IR) on human …; assay: as above; remark: listed apart in the source
Method: as §1, §2

[6] = biological target: T2, human insulin receptor (IR) on human …; assay: as above; remark: listed apart in the source
Method: as §1
Next, the insulin-Fc fusion protein of SEQ ID NO: 76 was evaluated for the potential for in vivo bioactivity.

[7] = biological target: T1, biotinylated recombinant human …; assay: ELISA, fusion protein coated, biotinylated rhFc(gamma)RI at 3000 ng/mL; remark: listed apart in the source
Method: The binding of insulin-Fc fusion proteins to the Fc(gamma)RI at pH 7.4 was conducted using an ELISA assay as follows using human Fc(gamma)RI (i.e., rhFc(gamma)RI). Insulin-Fc fusion proteins were diluted to 10 µg/mL in sodium bicarbonate buffer at pH 9.6 and coated on Maxisorp (Nunc) microtiter plates overnight at 4° C., after which the microplate strips were washed 5 times with PBST (PBS/0.05% Tween-20) buffer and blocked with Superblock blocking reagent (ThermoFisher). […] The plate was read in an ELISA plate reader at 450 nm, and the OD450 values (proportional to the binding of rhFc(gamma)RI to insulin-Fc protein) were plotted against log concentrations of rhFc(gamma)RI added to each well to generate binding curves using GraphPad Prism software. […] In order to compare differences across multiple insulin-Fc fusion proteins run at different times, the human Fc(gamma)RI assay OD450 Ratio was calculated as the OD450 value of a test insulin-Fc fusion protein compound obtained at a biotinylated-Fc(gamma)RI concentration of 3000 ng/mL, divided by the OD450 value of a reference insulin-Fc fusion protein of SEQ ID NO: 76 obtained at a biotinylated-Fc(gamma)RI concentration of 3000 ng/mL.

[8] = biological target: T3, biotinylated human FcRn (human, UniProt P55899 24-297; P61769 21-119, limits assumed, biotinylated, site not stated); assay: ELISA pH 5.5, fusion protein coated, biotinylated human FcRn titrated
T3 construct: Bought reagent (Immunitrack); composition not described; also called human FcRn receptor
Method: Insulin-Fc fusion proteins comprising Fc fragments were diluted to 10 µg/mL in sodium bicarbonate pH 9.6 buffer and coated in duplicate on Maxisorb ELISA plate strips for 1-2 hours at RT. The strips were then washed 5 times with PBST (PBS/0.1% Tween-20) buffer and blocked with Superblock blocking reagent (ThermoFisher). Strips for FcRn binding were then washed again 3 times with pH 5.5 MES/NaCl/Tween (50 mM MES/150mM NaCl/0.1% Tween-20) buffer before addition of the FcRn reagent (biotinylated human FcRn; Immunitrack). Serial dilutions (1:3X dilutions) of biotinylated FcRn reagent were prepared in pH 5.5 MES/NaCl/Tween/5%Superblock buffer at concentrations from 6000 ng/mL to 8.23 ng/mL and loaded at 100 µL/well using a multichannel pipettor onto the strips coated with the insulin-Fc fusion protein compounds. The assay plate was then incubated for 1.5 hours at room temperature. FcRn binding strips were washed 4 times with pH 5.5 MES/NaCl/Tween buffer and then loaded with 100 µl/well streptavidin-HRP diluted 1:10000 in pH 5.5 MES/NaCl /5%Superblock buffer. After incubating for 45 minutes, strips were washed again 5 times with pH 5.5 MES/NaCl/Tween buffer. […] The plate was read in an ELISA plate reader at a wavelength of 450 nm. […] EC50 values for each binding curve were calculated to compare between different compounds.

[9] = biological target: T4, biotinylated human complement component C1q (human, UniProt P02745 23-245; P02746 28-253; P02747 29-245, biotinylated, site not stated); assay: ELISA, fusion protein coated, biotinylated human C1q at 1000 ng/mL
T4 construct: also called biotinylated-C1q
Method: The binding of insulin-Fc fusion proteins to complement component C1q at pH 7.4 was conducted using an ELISA assay as follows using human complement component C1q. Insulin-Fc fusion proteins were diluted to 10 µg/mL in sodium bicarbonate buffer at pH 9.6 and coated on Maxisorp (Nunc) microtiter plates overnight at 4° C., after which the microplate strips were washed 5 times with PBST (PBS/0.05% Tween-20) buffer and blocked with Superblock blocking reagent (ThermoFisher). […] The plate absorbance was read in an ELISA plate reader at 450 nm (OD450), and the OD450 values (proportional to the binding of complement component C1q to insulin-Fc protein) were plotted against log concentrations of complement component C1q added to each well to generate binding curves using GraphPad Prism software. […] In order to further compare differences across multiple insulin-Fc fusion proteins run at different times, the human C1q assay OD450 Ratio was calculated as the OD450 of a test insulin-Fc fusion protein compound obtained at a biotinylated-C1q concentration of 1000 ng/mL, divided by the OD450 of a reference insulin-Fc fusion protein of SEQ ID NO: 76 obtained at a biotinylated-C1q concentration of 1000 ng/mL.

| Binder | EC50 [1] | OD450nm [2] | OD450nm minus assay background [2] | ratio to SEQ ID NO: 36 [2] | IC50 [3] | IC50 [4] | IC50 [5] | IC50 [6] | OD450 Ratio (reference SEQ ID NO: 76) [7] | EC50 [8] | OD450 Ratio (reference SEQ ID NO: 76) [9] |
| --- | --- | --- | --- | --- | --- | --- | --- | --- | --- | --- | --- |
| B1 | 0.599 µg/mL | 0.368 | 0.311 | 0.84 | 2340 nM | 2340 nM | 2340 nM | – | – | – | – |
| B2 | – | – | – | – | – | – | – | 1730 nM | 0.045 | 0.462 µg/mL | 0.309 |
